Assay results taken from US5981483, “Compositions comprising modulators of cytokines of the TGF-β superfamily” (Mount Sinai Hospital Corporation, dated 1999).
Blank lines part the entries; values can stand above or below the binder they belong to. Bridges are numbered along the chain shown (N, C = ends). Where no end group is shown, it is not given here.

B3: bovine fetuin (other)
chain: IPLDPVAGYKEPACDDPDTEQAALAAVDYINKHLPRGYKHTLNQIDSVKVWPRRPTGEVYDIEIDTLETTCHVLDPTPLANCSVRQQTQHAVEGDCDIHVLKQDGQFSVLFTKCDSSPDSAEDVRKLCPDCPLLAPLNDSRVVHAVEVALATFNAESNGSYLQLVEISRAQFVPLPVSVSVEFAVAATDCIAKEVVDPTKCNLLAEKQYGFCKGSVIQKALGGEDVRVTCTLFQTQPVIPQPQPDGAEAEAPSAVPDAAGPTPSAAGPPVASVVVGPSVVAVPLPLHRAHYDLRHTFSGVASVESSSGEAFHVGKTPIVGQPSIPGGPVRLCPGRIRYFKI
B4: recombinant human BMP-2 (ligand)
chain: QAKHKQRKRLKSSCKRHPLYVDFSDVGWNDWIVAPPGYHAFYCHGECPFPLADHLNSTNHAIVQTLVNSVNSKIPKACCVPTELSAISMLYLDENEKVVLKNYQDMVVEGCGCR

Tests used:
purified human TGF-β1 [1] = molecular target: T1, purified human TGF-β1 (human, UniProt P01137); test: SPR (BIAcore); analyte over immobilized cytokine; repeated calculation
Experimental: (§1) Data was analyzed using the BIA-evaluation software (Pharmacia Biosensor). The association rate constant, $kass$, was calculated by first plotting the change in response with time versus response (i.e. dR/dT vs R). When the slope of the line from this graph is plotted versus analyte concentration (i.e d(dR/dT)/dR vs C), $kass$ is obtained from the slope of the line. The dissociation rate constant, $kdiss$, is obtained during the decrease in response with time after analyte injection is discontinued. Specifically, $kdiss$ was obtained from the slope of the line in a plot of $\ln(Rt1/Rtn)$ vs time. The affinity constants were calculated from K_D = kdiss/kass. Variance for $kass$ is standard error of the linear regression plot, and for $kdiss$ values are the mean ± range of 3 or more independent injections.
(§2) Binding constants for fetuins and TRH1 peptide interactions with TGF-β and BMPs measured using the BIAcore and BIA-evaluation software (Pharmacia Biosensor). The change in response with time was plotted for each analyte concentration (ie. dR/dT vs R), and the slope of these lines were then plotted as a function of analyte concentration (i.e d(dR/dT)/dR vs C), where the slope yields $kass$. The dissociation rate constant, $kdiss$, is obtained after analyte injection is discontinued as the slope of $\ln(Rtl/Rtn)$ vs time. K_Ds are $kdiss/kass$. Variance for $kass$ is standard error of the linear regression plot, and for $kdiss$ values are the mean ± range of 3 or more independent injections.

purified human TGF-β1 [2] = molecular target: T1, purified human TGF-β1; test: SPR (BIAcore); analyte over immobilized cytokine
Experimental: (§3) In this system, a purified protein serving as the ligand is covalently coupled to a carboxymethylated dextran surface, and binding molecules (i.e. the analyte) are passed in a fluid phase across the surface. Binding of the analyte to ligand causes a change in reflected light which is directly proportional to mass bound, and is measured in arbitrary response units (R.U.). Analyte-ligand binding is observed as both increasing response with time during the injection of analyte, and the difference in the position of the baseline before and after injection.
as §1
(§4) Data was analyzed using the BIA-evaluation software (Pharmacia Biosensor). The association rate constant, $kass$, was calculated by first plotting the change in response with time versus response (ie. dR/dT vs R).

recombinant human BMP-2 [3] = molecular target: B4; test: SPR (BIAcore); analyte over immobilized cytokine; repeated calculation
Experimental: as §1, §2

recombinant human BMP-2 [4] = molecular target: B4; test: SPR (BIAcore); analyte over immobilized cytokine
Experimental: as §3, §1, §4

recombinant human BMP-2 [5] = molecular target: B4; test: SPR (BIAcore)
bovine serum albumin = bovine serum albumin (bovine, UniProt P02769); test: SPR (BIAcore), BMP-2 immobilized
Experimental: as §3

bovine fetuin [6] = molecular target: B3; test: SPR (BIAcore); analyte over immobilized cytokine; repeated calculation
Experimental: as §1, §2

[7] = molecular target: T2, adult human fetuin/α2-HS glycoprotein (human, UniProt P02765); test: SPR (BIAcore); analyte over immobilized cytokine
T2 sequence: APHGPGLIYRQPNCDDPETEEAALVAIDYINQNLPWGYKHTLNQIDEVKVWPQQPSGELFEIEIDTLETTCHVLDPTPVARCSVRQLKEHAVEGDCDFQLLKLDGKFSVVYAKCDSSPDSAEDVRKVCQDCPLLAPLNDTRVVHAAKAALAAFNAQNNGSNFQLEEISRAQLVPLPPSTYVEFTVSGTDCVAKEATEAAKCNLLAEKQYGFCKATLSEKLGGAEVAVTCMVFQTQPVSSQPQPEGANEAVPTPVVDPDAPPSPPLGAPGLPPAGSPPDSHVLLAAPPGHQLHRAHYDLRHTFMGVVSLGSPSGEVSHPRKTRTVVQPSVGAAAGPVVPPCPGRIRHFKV
Experimental: as §3, §2

bovine fetuin [8] = molecular target: B3; test: SPR (BIAcore); analyte over immobilized cytokine
Experimental: as §3, §1, §4

Binder: B3
fold greater affinity than fetuin binding to TGF-β1 (recombinant human BMP-2 [5]): ~100 times

Binder: B4
binding result (bovine serum albumin): no binding (tested: 0.22, 0.29, 0.44, 0.59, 0.88 µM)
Kd (bovine fetuin [6]): 27 nM
Kd [7]: 51 nM
Kd (bovine fetuin [8]): 36 nM

Now from value to binder:

Kd (purified human TGF-β1 [1]): > 10000 nM
Kd (purified human TGF-β1 [2]): > 10000 nM
B1: reduced and alkylated TRH1b peptide from TβRII (peptide)
peptide: CVAVWRKNDENITLETVCHD
modifications: also: Cys reduced and alkylated, agent not given here, exact limits not given here

Kd (recombinant human BMP-2 [3]): > 10000 nM
Kd (purified human TGF-β1 [1]): 1000 nM
koff (purified human TGF-β1 [1]): 0.0023 s⁻¹
kon (purified human TGF-β1 [1]): 2200 M⁻¹ s⁻¹
Kd (recombinant human BMP-2 [4]): > 10000 nM
Kd (purified human TGF-β1 [2]): 520 nM
koff (purified human TGF-β1 [2]): 0.0019 s⁻¹
kon (purified human TGF-β1 [2]): 3700 M⁻¹ s⁻¹
B2: cyclized TRH1b peptide from TβRII (peptide)
peptide: CVAVWRKNDENITLETVC
modifications: disulfide 1-18 (inferred); also: exact limits not given here, terminal residues may be removed
